{"source": "patent US20050182242A1", "about": "“Global analysis of protein activities using proteome chips” (priority 2001, published 2005)", "settings_in_all_cases": "liposome binding signal on yeast proteome chip, Cy3-streptavidin detection", "key": {"[1]": {"tested_on": "PI(3,4)P2 liposomes", "assay": "Yeast proteome chip probed with PI(3,4)P2 liposomes", "excerpt": "(§1) To identify PI-binding proteins in yeast, liposomes were used as probes because the liposome provides the most relevant physiological condition to assay the interactors. Six types of liposomes were used. Each contains phosphatidylcholine (“PC”) with 1% (w/w) N-(biotinoyl)-1,2-dihexadecanoyl-sn-glycero-3-phosphoethanolamine, triethylammonium salt (biotin DHPE). The biotinylated lipid serves as a label that can be detected by Cy3-streptavidin (21). In addition to PC, the five other liposomes contain either 5% (w/w) PI(3)P, PI(4)P, PI(3,4)P2, PI(4,5)P2, or PI(3,4,5)P3 (FIG. 3A).\n(§2) The protein-liposome interaction was assayed as follows. Appropriate amounts of each lipid in chloroform were mixed and dried under nitrogen. The lipid mixture was resuspended in TBS buffer by vortexing. The liposomes were created by sonication. Blocked proteome chips were washed three to five times in PBS buffer, and the extra liquid on the glass surface was removed by tapping the slides vertically on a KIMWIPE™. 200 μl of liposome solution was added to the proteome chip and immediately covered by a hydrophobic plastic cover slip (GRACE BIO-LAB™, USA). After trapped air bubbles were removed, the chip was incubated in a humidity chamber at RT for one hour. To remove the cover slip, the chip was immersed into large volume of PBS buffer (50 ml), so that the slip would float away. The chip was then moved to a second PBS bath (>50 ml) and washed 3×5 min with shaking at RT. After removing extra liquid on the surface of the chip, about 100 μl of Cy3 or Cy5 conjugated streptavidin (PIERCE™, USA; 1:2000 to 1:4000 dilution) was added to the surface and covered by a hydrophobic plastic cover slip (GRACE BIO-LABS™, USA). The chip was incubated for greater than 30 min in the dark at RT. The chip was then washed as described above. To completely remove the liquid on the chip, the chip was spun to dryness at 1500-2000 rpm for 5-10 min at RT.\n(§3) • 1. S. Fields, Y. Kohara, D. J. Lockhart, Proc. Natl. Acad. Sci. 96, 8825 (1999); A. Goffeau et al., Science 274, 563 (1996). • 2 P. Ross-Macdonald et al., Nature 402, 413 (1999); J. L., DeRisi, V. R. Iyer, P. O. Brown, Science 278, 680 (1997); E. A. Winzeler et al., Science 285, 901 (1999). P. Uetz et al., Nature 403, 623 (2000); T. Ito et al., Proc. Natl. Acad. Sci. USA. 97, 1143 (2000) • 3 H. Zhu, M. Snyder, Curr. Opin. Chem. Biol. 5, 40 (2001). • 4 M. R. Martzen et al., Science 286, 1153 (1999). • 5 H. Zhu et al., Nat. Genet. 26, 283 (2000). • 6 G. MacBeath, S. L. Schreiber, Science 289, 1760 (2000). • 7 A. Caveman, J. Cell Sci. 113, 3543 (2000). • 8 P. Arenkov et al., Anal. Biochem 278, 123 (2000). • 9 D. A. Mitchell, T. K. Marshall, R. J. Deschenes, Yeast 9, 715 (1993). The expression vector pEGH was created by inserting an RGS-HisX6 epitope tag between the GST gene and the polycloning site of pEG(KG). The yeast ORFs were cloned using the strategy described previously (5), except every step was done in a 96-well format. Plasmid DNAs confirmed by DNA sequencing were reintroduced into both yeast (Y258) and E. coli (DH5a). […] 0.1 mM calcium was present in buffers in all subsequent steps. The chip was washed three times with PBS at RT. Cy3-conjugated streptavidin (Jackson IR, USA) (1:5000 dilution) was added to the chip and incubated for 30 min at RT. After extensive washing, the chip was spun dry and scanned using a microarray scanner; the data was subsequently acquired with the GENEPIX™ array densitometry software (Axon, USA). • 12 S. S. Hook, A. R. Means, Annu. Rev. Pharmacol. Toxicol.41, 471 (2001). • 13 M. S. Cyert, R. Kunisawa, D. Kaim, J. Thorner, Proc. Natl. Acad. Sci. USA 88, 7376 (1991). • 14 D. A. Stirling, K. A. Welch, M. J. Stark, EMBO J. 13, 4329 (1994). • 15 F. Bohl, Kruse, EMBO J. 19, 5514 (2000); E. Bertrand et al., Mol. Cell 2, 437 (1998). • 16 D. C. Winter, E. Y. Choe, R. Li, Proc. Nat. Acad Sci. USA 96, 7288 (1999). • 17 C."}, "[2]": {"tested_on": "PI(4)P liposomes", "assay": "Yeast proteome chip probed with PI(4)P liposomes", "excerpt": "as §1, §2, §3"}, "[3]": {"tested_on": "phosphatidylcholine (PC) liposomes", "assay": "Yeast proteome chip probed with PC liposomes", "excerpt": "as §1, §2, §3"}, "[4]": {"tested_on": "PI(3,4,5)P3 liposomes", "assay": "Yeast proteome chip probed with PI(3,4,5)P3 liposomes", "excerpt": "as §1, §2, §3"}, "[5]": {"tested_on": "PI(4,5)P2 liposomes", "assay": "Yeast proteome chip probed with PI(4,5)P2 liposomes", "excerpt": "as §1, §2, §3"}}, "data": [{"molecule": "GFA1: yeast GST-HisX6 fusion protein on proteome chip (protein, UniProt P14742 2-717, looked up, GST-His6 tag, yeast GST-HisX6 fusion protein on proteome chip) Glutamine--fructose-6-phosphat …: CGIFGYCNYLVERSRGEIIDTLVDGLQRLEYRGYDSTGIAIDGDEADSTFIYKQIGKVSALKEEITKQNPNRDVTFVSHCGIAHTRWATHGRPEQVNCHPQRSDPEDQFVVVHNGIITNFRELKTLLINKGYKFESDTDTECIAKLYLHLYNTNLQNGHDLDFHELTKLVLLELEGSYGLLCKSCHYPNEVIATRKGSPLLIGVKSEKKLKVDFVDVEFPEENAGQPEIPLKSNNKSFGLGPKKAREFEAGSQNANLLPIAANEFNLRHSQSRAFLSEDGSPTPVEFFVSSDAASVVKHTKKVLFLEDDDLAHIYDGELHIHRSRREVGASMTRSIQTLEMELAQIMKGPYDHFMQKEIYEQPESTFNTMRGRIDYENNKVILGGLKAWLPVVRRARRLIMIACGTSYHSCLATRAIFEELSDIPVSVELASDFLDRKCPVFRDDVCVFVSQSGETADTMLALNYCLERGALTVGIVNSVGSSISRVTHCGVHINAGPEIGVASTKAYTSQYIALVMFALSLSDDRVSKIDRRIEIIQGLKLIPGQIKQVLKLEPRIKKLCATELKDQKSLLLLGRGYQFAAALEGALKIKEISYMHSEGVLAGELKHGVLALVDENLPIIAFGTRDSLFPKVVSSIEQVTARKGHPIIICNENDEVWAQKSKSIDLQTLEVPQTVDCLQGLINIIPLQLMSYWLAVNKGIDVDFPRNLAKSVTVE", "values": [{"measurement": "PI(3, 4)P2", "setting": "[1]", "result": "−8.63"}, {"measurement": "PI(4)P", "setting": "[2]", "result": 3.05}, {"measurement": "PC", "setting": "[3]", "result": "−1.76"}, {"measurement": "PI(3, 4, 5)P3", "setting": "[4]", "result": "−6.53"}, {"measurement": "PI(4, 5)P2", "setting": "[5]", "result": "−7.62"}]}, {"molecule": "PAT1: yeast GST-HisX6 fusion protein on proteome chip (protein, UniProt P25644 2-796, looked up, GST-HisX6 tag, yeast GST-HisX6 fusion protein on proteome chip) Deadenylation-dependent …: SFFGLENSGNARDGPLDFEESYKGYGEHELEENDYLNDETFGDNVQVGTDFDFGNPHSSGSSGNAIGGNGVGATARSYVAATAEGISGPRTDGTAAAGPLDLKPMESLWSTAPPPAMAPSPQSTMAPAPAPQQMAPLQPILSMQDLERQQRQMQQQFMNFHAMGHPQGLPQGPPQQQFPMQPASGQPGPSQFAPPPPPPGVNVNMNQMPMGPVQVPVQASPSPIGMSNTPSPGPVVGATKMPLQSGRRSKRDLSPEEQRRLQIRHAKVEKILKYSGLMTPRDKDFITRYQLSQIVTEDPYNEDFYFQVYKIIQRGGITSESNKGLIARAYLEHSGHRLGGRYKRTDIALQRMQSQVEKAVTVAKERPSKLKDQQAAAGNSSQDNKQANTVLGKISSTLNSKNPRRQLQIPRQQPSDPDALKDVTDSLTNVDLASSGSSSTGSSAAAVASKQRRRSSYAFNNGNGATNLNKSGGKKFILELIETVYEEILDLEANLRNGQQTDSTAMWEALHIDDSSYDVNPFISMLSFDKGIKIMPRIFNFLDKQQKLKILQKIFNELSHLQIIILSSYKTTPKPTLTQLKKVDLFQMIILKIIVSFLSNNSNFIEIMGLLLQLIRNNNVSFLTTSKIGLNLITILISRAALIKQDSSRSNILSSPEISTWNEIYDKLFTSLESKIQLIFPPREYNDHIMRLQNDKFMDEAYIWQFLASLALSGKLNHQRIIIDEVRDEIFATINEAETLQKKEKELSVLPQRSQELDTELKSIIYNKEKLYQDLNLFLNVMGLVYRDGEISELK", "values": [{"measurement": "PI(3, 4)P2", "setting": "[1]", "result": 10.05}, {"measurement": "PI(4)P", "setting": "[2]", "result": 158.95}, {"measurement": "PC", "setting": "[3]", "result": 160.24}, {"measurement": "PI(3, 4, 5)P3", "setting": "[4]", "result": 56.47}, {"measurement": "PI(4, 5)P2", "setting": "[5]", "result": 66.63}]}, {"molecule": "YER046W: yeast GST-HisX6 fusion protein on proteome chip (protein, UniProt P40031 1-143, looked up, GST-His6 tag, yeast GST-HisX6 fusion protein on proteome chip) Sporulation-specific protein …: MGKNHFLKDFSALPEDVLIENERGITLLGYPLFSPKILLPHVDPPQFQRLNTENGSLIALSKNTISNFIELYPIDLSTERTAGSSSSQMTKWFVLMDYKEKYDIDDQGWCYSWNFNNSRWKSKNGLVRRRVWVRLPTTSHGLD", "values": [{"measurement": "PI(3, 4)P2", "setting": "[1]", "result": 11.62}, {"measurement": "PI(4)P", "setting": "[2]", "result": 19.16}, {"measurement": "PC", "setting": "[3]", "result": "−18.20"}, {"measurement": "PI(3, 4, 5)P3", "setting": "[4]", "result": 5.62}, {"measurement": "PI(4, 5)P2", "setting": "[5]", "result": 6.31}]}, {"molecule": "BPL1: yeast GST-HisX6 fusion protein on proteome chip (protein, UniProt P48445 1-690, looked up, GST-HisX6 tag, yeast GST-HisX6 fusion protein on proteome chip) Biotin--protein ligase: MNVLVYNGPGTTPGSVKHAVESLRDFLEPYYAVSTVNVKVLQTEPWMSKTSAVVFPGGADLPYVQACQPIISRLKHFVSKQGGVFIGFCAGGYFGTSRVEFAQGDPTMEVSGSRDLRFFPGTSRGPAYNGFQYNSEAGARAVKLNLPDGSQFSTYFNGGAVFVDADKFDNVEILATYAEHPDVPSSDSGKGQSENPAAVVLCTVGRGKVLLTGPHPEFNVRFMRKSTDKHFLETVVENLKAQEIMRLKFMRTVLTKTGLNCNNDFNYVRAPNLTPLFMASAPNKRNYLQEMENNLAHHGMHANNVELCSELNAETDSFQFYRGYRASYDAASSSLLHKEPDEVPKTVIFPGVDEDIPPFQYTPNFDMKEYFKYLNVQNTIGSLLLYGEVVTSTSTILNNNKSLLSSIPESTLLHVGTIQVSGRGRGGNTWINPKGVCASTAVVTMPLQSPVTNRNISVVFVQYLSMLAYCKAILSYAPGFSDIPVRIKWPNDLYALSPTYYKRKNLKLVNTGFEHTKLPLGDIEPAYLKISGLLVNTHFINNKYCLLLGCGINLTSDGPTTSLQTWIDILNEERQQLHLDLLPAIKAEKLQALYMNNLEVILKQFINYGAAEILPSYYELWLHSNQIVTLPDHGNTQAMITGITEDYGLLIAKELVSGSSTQFTGNVYNLQPDGNTFDIFKSLIAKKVQS", "values": [{"measurement": "PI(3, 4)P2", "setting": "[1]", "result": 6.59}, {"measurement": "PI(4)P", "setting": "[2]", "result": 25.26}, {"measurement": "PC", "setting": "[3]", "result": 5.28}, {"measurement": "PI(3, 4, 5)P3", "setting": "[4]", "result": 8.77}, {"measurement": "PI(4, 5)P2", "setting": "[5]", "result": 22.21}]}, {"molecule": "RTG3: yeast GST-HisX6 fusion protein on proteome chip (protein, UniProt P38165 1-486, looked up, GST-His6 tag, yeast GST-HisX6 fusion protein on proteome chip) Retrograde regulation protein …: MMNNNESEAENQRLLDELMNQTKVLQETLDFSLVTPTPHHNDDYKIHGSAYPGGETPAQQHEKLSYINTHNSNDNNNLMGSQARSNSQTPTASTIYEEAESQSSYLDDMFRTSQGGRPVTQNSISSIGQGPLRSSYSMAYDSPVDRAMNTPLQQQEGLKAELPHDFLFQHGTDDTMYNLTDDLSSSLSSSINSDMMTPNTYSSSFSYNPQSLGPASVSSTYSPKVRSPSSSFRAGSFLSSSFRHGSINTPRTRHTSISSNMTENIGPGSVPKILGGLTSDEKLRRKREFHNAVERRRRELIKQKIKELGQLVPPSLLNYDDLGKQIKPNKGIILDRTVEYLQYLAEILEIQARKKKALLAKIKELEEKKSSVAALSPFTNNHHASSGQNNSENSEERIIDIRSVPNALMNEQNSKAELHNWEPPLYDSVGNHNHAGTMESHPHTNIHEELKEFLSGDLIEAEDNAKLMFGDDNSNPADYLLEFGSG", "values": [{"measurement": "PI(3, 4)P2", "setting": "[1]", "result": 0.16}, {"measurement": "PI(4)P", "setting": "[2]", "result": 12.19}, {"measurement": "PC", "setting": "[3]", "result": 5.58}, {"measurement": "PI(3, 4, 5)P3", "setting": "[4]", "result": "−5.29"}, {"measurement": "PI(4, 5)P2", "setting": "[5]", "result": 12.41}]}]}
